Data reported in US12383631B2, “Immune antigen specific IL-18 immunocytokines and uses thereof” (Bright Peak Therapeutics AG, priority 2022, dated 2025).

Target: T1, human IL-18 binding protein isoform a (IL-18BPa) (Homo sapiens, UniProt O95998)
T1 sequence (O95998 31-194): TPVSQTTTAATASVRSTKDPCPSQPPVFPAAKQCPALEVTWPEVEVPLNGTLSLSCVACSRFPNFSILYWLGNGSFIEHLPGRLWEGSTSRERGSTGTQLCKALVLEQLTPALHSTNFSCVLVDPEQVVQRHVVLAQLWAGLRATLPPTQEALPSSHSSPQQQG
Assay: Cellular IL-18 Binding protein resistance assay in NK-92 cells (Example 13)
Assay type: cell-based
Settings: NK92 cells, IL-18 analyte 1 nM final, IL-18BPa titrated, 1 ng/ml IL-12; read-out: IC50 IL-18BP-mediated inhibition of IFNγ secretion
Procedure: The NK cell line NK-92 derived from a patient with lymphoma (ATCC, Cat #CRL-2407) was cultured in aMEM medium supplemented with 20% FCS-Glutamax, 25 μM B-mercaptoEthanol, and 100 IU/ml of recombinant Human Interleukin-2 (TL-2). On the day of experiment, cells were harvested and washed with aMEM medium without IL-2. After counting, cells were seeded at 100 000 cells/well in a 384 well titer plate and incubated at 37° C./5% CO2. Sixteen 2-fold serial dilutions of Fc fused human IL-18 binding protein isoform a (IL-18BPa; R&D systems, Cat #119-BP) were prepared in aMEM medium-1 ng/ml IL-12 containing 2 nM of each IL-18 variants and were added to the NK-92 cells. Final IL-18 analytes concentration was 1 nM and final IL-18BPa concentrations ranged from to 566 nM down to 17 pM.
After 16-20 h incubation at 37° C./5% CO2, 5 μl of supernatant were carefully transferred to a 384 microwells OPTIplate (Perkin Elmer; Cat #6007270) and Interferon-gamma (IFNγ) levels measured using the Human IFNγ AlphaLISA Assay Kit (Perkin Elmer, Cat #AL217C). Briefly, 10 μl of 2.5× AlphaLISA Anti-IFNγ acceptor beads and biotinylated Antibody Anti-IFNγ mix were added to the 5 μl of NK-92 supernatants and incubated for 1 h at room temperature under shaking. Under subdued light, 2.5 μl of 2× streptavidin (SA) donor beads were pipetted in each well and incubated for 30 min at room temperature under shaking. AlphaLisa signal was then measured on an Enspire plate reader (Perkin Elmer) using 680 and 615 nm as excitation and emission wavelengths respectively. Half maximal inhibitory concentration (IC50) was calculated based on a variable slope, four parameter analysis using GraphPad PRISM software.

IC50: > 1000 nM
Substance: Composition B: immunocytokine: Atezolizumab/Tecentriq (anti-PD-L1) conjugated to IL-18 polypeptide SEQ ID NO: 30
